Experimental data as given in article PMC4406585, “Generating Recombinant Antibodies against Putative Biomarkers of Retinal Injury” (PLoS ONE, 2015).
*: point of attachment. Biotin = O=C1N[C@H]2[C@H](CS[C@H]2CCCCC(=O)*)N1

T1: GBB5 peptide (Guanine Nucleotide-Binding Protein Beta 5) (Oryctolagus cuniculus peptide, synthetic, SMILES …)
T1 construct: four amino acid linker, printed in words: Glycine-Serine-Glycine-Serine; also called wild-type peptide; Ctrl; source: synthetic peptide
T1 chain: Biotin-GSGSKLHDVELHQVAERV-NH2


Assays:
[1] = target: T2, Guanine Nucleotide-Binding Protein Beta 5 (GBB5), rabbit, endogenous (Oryctolagus cuniculus, UniProt Q6PNB6); assay: far-Western, overlay or dot blot; western blot: retinal lysates resolved by SDS-PAGE, on PVDF; probed with 1 μg/mL scFv in PBS for 2 h; anti-Flag-HRP M2, ECL; conditions: one partner purified
T2 construct: expected size 38.7 kDa printed; also called rabbit GBB5; source: endogenous, rabbit retinal homogenate

[2] = target: T3, Guanine Nucleotide-Binding Protein Beta 5 (GBB5), mouse, endogenous (Mus musculus, UniProt P62881, strain); assay: as above; conditions: one partner purified
T3 construct: also called mouse GBB5; source: endogenous, mouse retinal homogenate

[3] = target: T4, Guanine Nucleotide-Binding Protein Beta 5 (GBB5), chicken, endogenous (Gallus gallus, UniProt A0A8V0ZF95); assay: as above; conditions: one partner purified
T4 construct: expected size 38.8 kDa printed; also called chicken homolog; source: endogenous, chicken retina or whole eye homogenate

GBB5 peptide (Guanine …) [4] = target: T1, GBB5 peptide (Guanine …); assay: photonic crystal biosensor (SRU Biosystems BIND); biotinylated peptide, 50 ng/well, on streptavidin-coated 96-well biosensor plate, blocked with 5% BSA; scFv in decreasing concentration in 7 wells in elution buffer; overnight end-point change in peak wavelength; dose response curve, EC50 used to estimate Kd; conditions: both partners purified
GBB5 peptide (Guanine …) [5] = target: T1, GBB5 peptide (Guanine …); assay: ELISA; peptides at 25 nM on NeutrAvidin-coated plate; scFv at 30 nM, scFv-Fc at 10 nM in PBST; anti-FLAG-HRP, ABTS, 405 nm; conditions: both partners purified

T3 sequence (P62881 whole entry, looked up, change not shown): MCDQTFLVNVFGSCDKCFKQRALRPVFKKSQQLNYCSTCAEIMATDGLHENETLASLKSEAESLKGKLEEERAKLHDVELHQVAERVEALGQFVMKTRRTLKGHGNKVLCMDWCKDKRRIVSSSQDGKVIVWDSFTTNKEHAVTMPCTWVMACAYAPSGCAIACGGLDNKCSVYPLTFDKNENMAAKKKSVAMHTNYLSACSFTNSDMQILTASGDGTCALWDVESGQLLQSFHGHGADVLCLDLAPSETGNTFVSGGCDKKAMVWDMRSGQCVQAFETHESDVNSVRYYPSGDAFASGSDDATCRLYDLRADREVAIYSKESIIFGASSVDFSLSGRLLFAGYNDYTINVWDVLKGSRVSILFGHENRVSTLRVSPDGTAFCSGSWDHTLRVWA
T2 sequence (Q6PNB6 whole entry): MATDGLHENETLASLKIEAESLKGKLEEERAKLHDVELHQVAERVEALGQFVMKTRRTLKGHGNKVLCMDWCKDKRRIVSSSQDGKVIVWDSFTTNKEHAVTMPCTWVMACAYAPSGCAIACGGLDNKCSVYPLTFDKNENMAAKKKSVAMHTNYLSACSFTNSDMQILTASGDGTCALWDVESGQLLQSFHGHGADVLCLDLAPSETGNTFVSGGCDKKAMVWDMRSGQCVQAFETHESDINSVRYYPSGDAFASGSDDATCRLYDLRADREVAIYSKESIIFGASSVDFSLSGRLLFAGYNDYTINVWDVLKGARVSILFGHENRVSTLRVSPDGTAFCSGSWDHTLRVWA

Binder | binding result [1] | binding result [2] | binding result [3] | EC50 (GBB5 peptide (Guanine …) [4]) | fold ELISA signal against the soluble scFv (GBB5 peptide (Guanine …) [5])
anti-GBB5-H9 scFv (scFv, V domains shown, VL of clone H9, from a phage library of human B-cell cDNA; 14 amino acid linker of the library vector between VL and VH; VH of clone H9, from a phage library of human B-cell cDNA; Order VL-linker-VH; also called anti-GBB5-scFv H9; source: E. coli TG-1 (pKP300ΔIIIΔAP, OmpA signal to the periplasm, low phosphate media), purified (IMAC); not shown: FLAG, N-terminal, kept) VH: EVQLVQSGGGLVQPGGSLRLSCAASGFTVSSNYMSWVRQAPGKGLEWVSSISSSSSYIYYADSVKGRFTISRDNAKNSLYLQMNSLRAEDTAVYYCARSYPFDYWGQGTLVTVSS VL: NFMLTQPHSVSESPGKAVTISCTGSSGDVARNYVQWYQQRPGSAPIIVIYEDTQRPSGVPDRFSGSIDSSSNSASLTISGLTTEDEADYYCQSYDGHNVIFGGGTKLTVL | binds | binds | binds | ~300 nM | 
anti-GBB5-H9 scFv-Fc (Fc fusion, human, VL as in m1 (clone H9); 14 amino acid linker of the library vector between VL and VH; VH as in m1 (clone H9); H9 scFv coding region subcloned upstream of the Fc through NcoI and NotI; order after the scFv: Fc, (His)6, tri-FLAG; Homodimer through disulfide bonds of the Fc; also called Fc format of the H9 clone; bivalent Fc format; source: HEK-293 Freestyle cells, transiently transfected …) VH: EVQLVQSGGGLVQPGGSLRLSCAASGFTVSSNYMSWVRQAPGKGLEWVSSISSSSSYIYYADSVKGRFTISRDNAKNSLYLQMNSLRAEDTAVYYCARSYPFDYWGQGTLVTVSS VL: NFMLTQPHSVSESPGKAVTISCTGSSGDVARNYVQWYQQRPGSAPIIVIYEDTQRPSGVPDRFSGSIDSSSNSASLTISGLTTEDEADYYCQSYDGHNVIFGGGTKLTVL |  |  |  |  | ~4.5 fold
